In patent US7638490B2, “Methods of affecting feeding and weight in mammals by administration of relaxin-3” (priority 2004, dated 2009):

What was measured:
[1] = target: T1, SALPR (Homo sapiens, UniProt Q9NSD7); assay: Suppression of forskolin-increased transcription activity (CRE-PLAP reporter) in SALPR-SE302 cells; format: cell-based; settings: forskolin 1 μmol/L, 1 day incubation, alkaline phosphatase reporter
T1 construct: expressed in transfected cells; host or cells: SE302 cells (HEK293 clone carrying a CRE-VIP promoter PLAP reporter), transduced with retrovirus vector pBabeCL(SALPR)IH and selected with hygromycin
T1 sequence (Q9NSD7 1-469): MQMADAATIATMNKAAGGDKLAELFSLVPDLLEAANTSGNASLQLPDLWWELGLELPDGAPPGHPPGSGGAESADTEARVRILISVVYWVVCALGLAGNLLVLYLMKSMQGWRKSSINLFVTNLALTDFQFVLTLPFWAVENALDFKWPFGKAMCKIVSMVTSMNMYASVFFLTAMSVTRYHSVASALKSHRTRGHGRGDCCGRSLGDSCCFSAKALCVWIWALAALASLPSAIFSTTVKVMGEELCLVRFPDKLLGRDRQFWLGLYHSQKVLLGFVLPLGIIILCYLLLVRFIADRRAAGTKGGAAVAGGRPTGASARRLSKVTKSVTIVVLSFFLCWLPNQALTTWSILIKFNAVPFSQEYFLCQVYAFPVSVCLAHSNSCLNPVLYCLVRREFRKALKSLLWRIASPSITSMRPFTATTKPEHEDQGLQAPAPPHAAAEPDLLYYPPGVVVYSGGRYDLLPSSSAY
Description: On the following day, relaxin-3 (Phoenix Pharmaceuticals) or insulin (Invitrogen) diluted with an assay medium (DMEM supplemented with 0.1% bovine serum albumin) in specified concentrations was added, after which forskolin (Calbiochem) was added to make a final concentration of 1 μmol/L. After 1 day incubation, 15 μl each of the cell supernatant was recovered and then transferred to a 96-well plate for chemiluminescence measurement (Sumitomo Bakelite), 60 μl of buffer solution for assay (280 mmol/L Na2CO3—NaHCO3, 8 mmol/L MgSO4, pH 10) and 70 μl of Lumiphos530 (Lumigen) were added and the reaction was carried out at room temperature for 1 hour, after which chemiluminescence for each well was measured by a fusion plate reader (Perkin Elmer) to assess the transcription activity.

[2] = Body weight gain and amount of feeding under chronic intracerebroventricular administration; format: in vivo, rat; settings: Wistar male rats, chronic icv by osmotic pump, 100 μmol/L at 6 μl/day
Description: A relaxin-3 solution was prepared by dissolving relaxin-3 (Peptide Institute, Inc.) in physiological saline at a concentration of 100 μmol/L. A vehicle solution (physiological saline) or the relaxin-3 solution was poured into an osmotic pump (Alzet osmotic pump model 1002 (DURECT); delivering 6 μl/day), a tube and a cannula for administration, after which they were connected together. Wistar male rats (6 weeks of age; Japan Charles River) were fed feed for experimental animals (MF; Oriental Yeast) and adapted to individual cages for 4 days. Under anesthesia, a guide cannula was inserted into the lateral cerebroventricle of these rats (250-270 g) and an osmotic pump was implanted under the skin. The rats had free access to feed and their body weight and feeding were measured every morning. Further, the decrease in the amount of feed per day is shown as the amount of feeding (FIG. 8).

[3] = Epididymal fat weight, blood leptin and blood insulin after chronic intracerebroventricular administration; format: in vivo, rat; settings: rats, chronic icv administration, day 14, vs vehicle
Description: After measuring body weight and the amount of feed on the last day of the experiment (day 14), the rats were anesthetized with Nembutal, epididymal fat was taken and the total fat weight was measured (FIG. 9). Further, the blood was taken from the abdominal aorta. The blood was centrifuged at 1,750×g for 15 minutes and the resulting supernatant was stored at −80° C. Later, the amount of leptin in the supernatant was quantitatively determined by a rat leptin measuring kit (L) (IBL) (FIG. 10A). Further, the amount of insulin in the supernatant was quantitatively determined by an ultra sensitive rat insulin measuring kit (Morinaga Institute of Biological Science) (FIG. 10B).

[4] = Amount of feeding after single intracerebroventricular administration; format: in vivo; settings: Wistar male rats, single icv, about 50 pmol/rat, 2 hours after administration, vs vehicle, t-test p<0.01
Description: Wistar male rats (7 weeks of age; Japan Charles River) were fed feed for experimental animals (MF; Oriental Yeast) to be adapted. The rats (250 to 300 g) received cannulation into the lateral cerebroventricle under anesthesia. Administration experiments were carried out a week or later. Relaxin-3 (60 μg; Phoenix Pharmaceuticals) was dissolved in DMSO and added with an artificial cerebrospinal fluid to make a final concentration of 200 μmol/L. The deposited precipitate was removed by centrifugation and the resulting supernatant was used as a relaxin-3 administration solution. The amount of administration (relaxin-3 concentration in the administration solution) was about 50 pmol/rat when calculated using the standard curve with relaxin-3 in the experimental system shown in Example 7. Rats with guide cannula implantation were divided into 2 groups (6 animals per group) and administered with the relaxin-3 administration solution or a vehicle solution (a solution having the same composition as (2) above without relaxin-3) at a rate of 5 μl/2 minutes using an infusion pump. Immediately after the intracerebroventricular administration of the administration solution, rats were put in a cage where pre-weighed feed was placed and fed ad libitum. The amount of feeding was calculated by measuring the decrease in feed 2 hours later.

[5] = Spontaneous locomotor activity under chronic intracerebroventricular administration; format: in vivo, rat; settings: rats, chronic icv; light phase days 2 and 7, dark phase days 3 and 8
Description: Spontaneous locomotor activity was measured using a Versamax system (Accuscan) in the light phase and dark phase on days when significant difference in body weight increasing activity in the rats receiving relaxin-3 administration was recognized.

[6] = Blood leptin concentration after single intracerebroventricular administration; format: in vivo, rat; settings: rats, single icv administration, about 3 hours after administration, vs vehicle, t-test p<0.05
Description: The above-mentioned rats were anesthetized with Nembutal after the feeding measurement (about 3 hours after administration) and the blood was taken from the abdominal aorta. The blood taken was centrifuged at 1,750×g for 15 minutes and the resulting supernatant was stored at −80° C. Later, the amount of leptin in the supernatant was quantitatively determined by a rat leptin quantification ELISA kit (Amersham Bioscience).

[7] = target: T1, SALPR; assay: Screening for relaxin-3 antagonistic substance using SALPR-SE302 cells (CRE-PLAP reporter); format: cell-based; settings: 3 μmol/L forskolin, relaxin-3 at 3 nmol/L
[8] = Body weight gain under chronic intracerebroventricular administration (locomotor study); format: in vivo, rat; settings: Wistar male rats (5 weeks of age), chronic icv by osmotic pump, from day 1 after administration
Description: A relaxin-3 solution was prepared by dissolving relaxin-3 (Peptide Institute, Inc.) in physiological saline at a concentration of 100 μmol/L. A vehicle solution (physiological saline) or the relaxin-3 solution was poured into an osmotic pump (Alzet osmotic pump model 1002 (DURECT), delivering at 6 μ/day), a tube and a cannula for administration, after which they were connected together. Wistar male rats (5 weeks of age; Japan Charles River) were fed feed for experimental animals (MF; Oriental Yeast) and adapted to individual cages for 5 days. Under anesthesia, a guide cannula was inserted into the lateral cerebroventricle of these rats (170-200 g) and an osmotic pump was implanted under the skin. The operation date was set to be day 0. The rats had free access to feed and water and the body weight was measured every morning, except on days for locomotor activity measurement (FIG. 11).

**Q.** For “insulin: related peptide (Invitrogen) used as specificity control in the SALPR reporter test [reference compound]”, which “effect on increase in transcription activity by forskolin” value (from here on “effect on increase”) [1] is on record?
**A.** not affected

B1: relaxin-3: polypeptide called relaxin-3 (INSL7) comprising the amino acid sequence of SEQ ID NO: 2; natural ligand of SALPR (protein, listed as Homo sapiens)
chain: MARYMLLLLLAVWVLTGELWPGAEARAAPYGVRLCGREFIRAVIFTCGGSRWRRSDILAHEAMGDTFPDADADEDSLAGELDEAMGSSEWLALTKSPQAFYRGRPSWQGTPGVLRGSRDVLAGLSSSCCKWGCSKSEISSLC
**Q.** For B1, which amount of feeding ([2]; from day 1) is on record?
**A.** significant increase in the amount of feeding

**Q.** What about the body weight increase ([2]; from day 1 after operation) of the same molecule?
**A.** significant increase in body weight

**Q.** What about the “amount of epididymal fat” value [3] of the same molecule?
**A.** significantly increased

**Q.** And the “insulin concentration in blood” value [3]?
**A.** significantly increased

**Q.** What about the “leptin concentration in blood” value [3] of the same molecule?
**A.** significantly increased

**Q.** What about the amount of feeding [4] of the same molecule?
**A.** significantly increased

**Q.** What about the “spontaneous locomotor activity (total for 90 minutes)” value [5] of the same molecule?
**A.** No significant change in locomotor activity

**Q.** And the blood leptin concentration [6]?
**A.** significantly increased

**Q.** And the “effect on increase” value [7]?
**A.** suppressed the increase in transcription activity by forskolin

**Q.** What about the body weight increase [8] of the same molecule?
**A.** significant increase in body weight

**Q.** And the “effect on increase” value [1]?
**A.** suppressed via SALPR activation the increase in transcription activity by forskolin
